Source: publication PMC8697598 (ACS Omega, 2021)

Key:
AfGcHK = target: T1, AfGcHK (Anaeromyxobacter sp. Fw109-5, UniProt A7HD43); assay: autophosphorylation, Phos-tag SDS-PAGE; assay type: biochemical; conditions: Fe(III) and Fe(II)-O2 heme forms of Fe-AfGcHK; 1 mM ATP, 5 mM MgCl2, pH 8.0, 25 °C
T1 construct: gene gchK; full-length, C-terminal His6 tag kept, pET-21c in E. coli BL21(DE3); reconstituted with heme or cobalt protoporphyrin IX
T1 sequence (A7HD43 1-382): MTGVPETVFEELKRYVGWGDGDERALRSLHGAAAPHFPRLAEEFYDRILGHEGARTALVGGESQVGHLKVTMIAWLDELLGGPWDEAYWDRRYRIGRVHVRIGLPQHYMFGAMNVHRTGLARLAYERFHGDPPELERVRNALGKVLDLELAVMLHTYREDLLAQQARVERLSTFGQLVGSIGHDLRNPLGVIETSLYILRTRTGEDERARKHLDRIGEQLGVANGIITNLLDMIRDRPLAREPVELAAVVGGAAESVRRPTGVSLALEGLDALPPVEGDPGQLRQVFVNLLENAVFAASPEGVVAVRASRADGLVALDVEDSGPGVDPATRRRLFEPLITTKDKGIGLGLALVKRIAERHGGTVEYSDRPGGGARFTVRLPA

[1] = target: the molecule itself; assay: SEC; analytical gel filtration, Superdex 200 Increase 10/300 GL, 50 mM Tris-HCl pH 8.0, 100 mM NaCl; molecular weight estimated from elution volumes of standard proteins

Molecule: Nc1ncnc2c1ncn2[C@@H]1O[C@H](COP(=O)(O)OP(=O)(O)OP(=O)(O)O)[C@@H](O)[C@H]1O [ATP]
- autophosphorylation, Phos-tag SDS-PAGE (AfGcHK): the Fe(III), and Fe(II)-O2 complexes of Fe-AfGcHK displayed autophosphorylation activity

B1: Fe-AfGcHK, globin-coupled histidine kinase from Anaeromyxobacter sp. Fw109-5 reconstituted with heme (iron protoporphyrin IX) (enzyme, UniProt A7HD43 1-382, looked up)
chain: MTGVPETVFEELKRYVGWGDGDERALRSLHGAAAPHFPRLAEEFYDRILGHEGARTALVGGESQVGHLKVTMIAWLDELLGGPWDEAYWDRRYRIGRVHVRIGLPQHYMFGAMNVHRTGLARLAYERFHGDPPELERVRNALGKVLDLELAVMLHTYREDLLAQQARVERLSTFGQLVGSIGHDLRNPLGVIETSLYILRTRTGEDERARKHLDRIGEQLGVANGIITNLLDMIRDRPLAREPVELAAVVGGAAESVRRPTGVSLALEGLDALPPVEGDPGQLRQVFVNLLENAVFAASPEGVVAVRASRADGLVALDVEDSGPGVDPATRRRLFEPLITTKDKGIGLGLALVKRIAERHGGTVEYSDRPGGGARFTVRLPA
notes: AfGcHK, globin-coupled oxygen sensor histidine kinase from Anaeromyxobacter sp; Fw109-5; full-length protein with N-terminal globin sensor domain and C-terminal histidine kinase domain; predicted mass 43.0 kDa with the C-terminal His6 tag; Holds one equivalent of heme (iron protoporphyrin IX) per subunit; As purified, partially pre-autophosphorylated (about 10%, at His183); source: E. coli …
- stoichiometry N [1]: 2

B2: Co-AfGcHK, cobalt-substituted AfGcHK (globin-coupled histidine kinase from Anaeromyxobacter sp. Fw109-5 reconstituted with cobalt protoporphyrin IX) (enzyme, UniProt A7HD43 1-382, looked up)
chain: MTGVPETVFEELKRYVGWGDGDERALRSLHGAAAPHFPRLAEEFYDRILGHEGARTALVGGESQVGHLKVTMIAWLDELLGGPWDEAYWDRRYRIGRVHVRIGLPQHYMFGAMNVHRTGLARLAYERFHGDPPELERVRNALGKVLDLELAVMLHTYREDLLAQQARVERLSTFGQLVGSIGHDLRNPLGVIETSLYILRTRTGEDERARKHLDRIGEQLGVANGIITNLLDMIRDRPLAREPVELAAVVGGAAESVRRPTGVSLALEGLDALPPVEGDPGQLRQVFVNLLENAVFAASPEGVVAVRASRADGLVALDVEDSGPGVDPATRRRLFEPLITTKDKGIGLGLALVKRIAERHGGTVEYSDRPGGGARFTVRLPA
notes: AfGcHK, globin-coupled oxygen sensor histidine kinase from Anaeromyxobacter sp; Fw109-5; full-length protein with N-terminal globin sensor domain and C-terminal histidine kinase domain; predicted mass 43.0 kDa with the C-terminal His6 tag; Same polypeptide and construct as m1; source: E. coli BL21(DE3), pET-21c; cobalt(III) protoporphyrin IX chloride added to the crude extract; purified (HisTrap …)
- stoichiometry N [1]: 2
